Common to all, as to assay: SPR
For assay [1], the target named is T1, H1N1 A/California/07/2009 hemagglutinin ectodomain, biotinylated HA0 (influenza A virus A/California/07/2009 …, biotin on the BirA site).
Assay [2] has as its target T2, H1N1 A/New Caledonia/20/1999 hemagglutinin ectodomain, biotinylated HA0 (influenza A virus A/New …, biotin on the BirA site).
Assay [3] concerns the target T3, H5N1 A/Vietnam/1203/2004 hemagglutinin ectodomain, biotinylated HA0 (influenza A virus A/Vietnam/1203/2004 …).
Assay [4] deals with T1, H1N1 A/California/07/2009 hemagglutinin …. The source holds these as a separate data set.
For assay [5], the target named is T2, H1N1 A/New Caledonia/20/1999 …. The source holds these as a separate data set.
Assay [6] concerns the target T3, H5N1 A/Vietnam/1203/2004 hemagglutinin …. The source holds these as a separate data set.

Positions of bridges follow the written chain, without caps; N, C: chain ends. Non-standard residues stand in square brackets, D forms with d. No end group written: not given here.

B1: cyclic peptide CP13 (peptide)
peptide: CYRDPLGVAGEMC
modifications: also: cyclic peptide, ring closure not given here
One may read the Kd as the concentration at which binding is half-saturated. Read a high Kd as weaker binding. With B1, the values for the Kd in assay [1], in assay [2] and in assay [3] were 12000 nM, 32000 nM and 8910 nM, respectively.

B2: cyclic peptide CP6 (peptide)
chain: PGLYEDPLGVAGGMG
modifications: also: cyclic peptide, ring closure not given here
A word on the koff: it is a measure of how fast the partners let go of each other. Low values mean slow dissociation, high ones fast dissociation. Take B2: the koff in assay [4] worked out at 0.83 s⁻¹; in assay [5] it was 0.42 s⁻¹; in assay [6], 0.95 s⁻¹. The Kd in assay [1] is 1910 nM; in assay [2] it was 800 nM; in assay [3], 3020 nM.

B3: cyclic peptide CP8 (peptide)
chain: CLYRDPLGVAGGMGC
modifications: disulfide 1-15
Turning to B3, the off-rate constant (koff) in assay [4] came out at 0.1 s⁻¹; in assay [5], 0.23 s⁻¹; in assay [6], 0.98 s⁻¹. Besides, the dissociation constant Kd was determined as 330 nM in assay [1], 850 nM in assay [2] and 320 nM in assay [3].

B4: cyclic peptide CP2 (peptide)
chain: P[dP]SLYEDPLGVAGGMGV
modifications: also: cyclic peptide, ring closure not given here
In the case of B4, the koff was 3.48 s⁻¹ in assay [4] and 1.08 s⁻¹ in assay [5]. The Kd in assay [1] came to 7280 nM; in assay [2] it was 3080 nM.

B5: cyclic peptide CP1 (peptide)
chain: [dP]PVSLYEDPLGVAGGMGVY
modifications: also: cyclic peptide, ring closure not given here
In the case of B5, the koff in assay [4] was found to be 0.01 s⁻¹; in assay [5] it was 0.02 s⁻¹; in assay [6], 0.14 s⁻¹. For the same molecule, the dissociation constant Kd in assay [2] was 20 nM; in assay [3], 1800 nM.

B6: cyclic peptide CP14 (peptide)
chain: LYEDPLGVAGGMG
modifications: non-template-based cyclic peptide (direct head-to-tail cyclization)
For B6, the equilibrium dissociation constant (Kd) is 1070 nM in assay [1], 640 nM in assay [2] and 2740 nM in assay [3].

B7: cyclic peptide CP4 (peptide)
chain: PGVSLYEDPLGVAGGMGVY
modifications: also: cyclic peptide, ring closure not given here
For B7, the koff turned out to be 0.04 s⁻¹ in assay [4], 0.06 s⁻¹ in assay [5] and 0.32 s⁻¹ in assay [6]. Further, the Kd in assay [1] was 120 nM; in assay [2] it was 360 nM; in assay [3] it was 290 nM.

B8: cyclic peptide CP3 (peptide)
chain: PPLYEDPLGVAGGMG
modifications: also: one Pro of the Pro-Pro template is D, which not given here, cyclic peptide, ring closure not given here
Turning to B8, the figures for the koff in assay [4], in assay [5] and in assay [6] were 1.07 s⁻¹, 0.45 s⁻¹ and 0.76 s⁻¹, respectively. Also, the values for the Kd in assay [1], in assay [2] and in assay [3] were 2390 nM, 1180 nM and 2040 nM, respectively.

Source of the values: PMC12714728 (2025).
